Data on 1 substance can be found in patent US20050112690A1.

This test deals with extra-domain B (ED-B) of fibronectin, as present in arteriosclerotic plaque of aorta specimens of WHHL rabbits (rabbit (WHHL rabbit aorta tissue)) (UniProt Q28749). Description: in vitro perfusion (Ussing chamber) of WHHL rabbit aorta specimens with radiolabeled scFv, 20 min at room temperature, gamma counting.
Sequence of UniProt Q28749 (Q28749 1221-1309 limits assumed): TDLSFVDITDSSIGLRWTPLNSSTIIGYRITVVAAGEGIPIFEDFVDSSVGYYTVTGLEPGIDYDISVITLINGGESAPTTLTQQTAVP

Take “125I-labeled L19 derivative ZK212667 (L19) (scFv)”: the rating factor (bound amount on arteriosclerotic vs non-arteriosclerotic aorta sections) was determined as 2.8.
